{"source": "patent US20250228964A1", "about": "(CODIAK BIOSCIENCES, published 2025)", "proteins": {"B1": {"name": "recombinant PTGFRN extracellular domain (ECD), purified, Fc tag removed with thrombin (receptor)", "chain": "VPTATLVRVVGTELVIPCNVSDYDGPSEQNFDWSFSSLGSSFVELASTWEVGFPAQLYQERLQRGEILLRRTANDAVELHIKNVQPSDQGHYKCSTPSTDATVQGNYEDTVQVKVLADSLHVGPSARPPPSLSLREGEPFELRCTAASASPLHTHLALLWEVHRGPARRSVLALTHEGRFHPGLGYEQRYHSGDVRLDTVGSDAYRLSVSRALSADQGSYRCIVSEWIAEQGNWQEIQEKAVEVATVVIQPSVLRAAVPKNVSVAEGKELDLTCNITTDRADDVRPEVTWSFSRMPDSTLPGSRVLARLDRDSLVHSSPHVALSHVDARSYHLLVRDVSKENSGYYYCHVSLWAPGHNRSWHKVAEAVSSPAGVGVTWLEPDYQVYLNASKVPGFADDPTELACRVVDTKSGEANVRFTVSWYYRMNRRSDNVVTSELLAVMDGDWTLKYGERSKQRAQDGDFIFSKEHTDTFNFRIQRTTEEDRGNYYCVVSAWTKQRNNSWVKSKDVFSKPVNIFWALEDSVLVVKARQPKPFFAAGNTFEMTCKVSSKNIKSPRYSVLIMAEKPVGDLSSPNETKYIISLDQDSVVKLENWTDASRVDGVVLEKVQEDEFRYRMYQTQVSDAGLYRCMVTAWSPVRGSLWREAATSLSNPIEIDFQTSGPIFNASVHSDTPSVIRGDLIKLFCIITVEGAALDPDDMAFDVSWFAVHSFGLDKAPVLLSSLDRKGIVTTSRRDWKSDLSLERVSVLEFLLQVHGSEDQDFGNYYCSVTPWVKSPTGSWQKEAEIHSKPVFITVKMDVLNAFKYP", "notes": "Expressed in Expi293 as signal peptide-ECD-PAR1 cleavage site-Fc; the Fc was removed with thrombin, so a remnant of the PAR1 site may remain; also called PTGFRN ECD; purified PTGFRN ECD"}}, "target": "the molecule itself", "assay": "SEC-MALS (eluted at 198 kDa against the predicted 98 kDa) and analytical SEC with 0, 1M or 2M GuHCl", "protocol": "To confirm proper expression of the PTGFRN ECD, the purified protein was analyzed by size exclusion chromatography/multiangle light scattering (SEC-MALS), using BSA and an anti-VLA4 antibody as standards for comparison. Recombinant PTGFRN ECD was eluted at ˜2x its predicted molecular weight (198 kDa as opposed to the predicted molecular weight, 98 kDa; FIG. 20A). To determine whether PTGFRN ECD forms a homodimer in solution, recombinant PTGFRN ECD was run over an analytical SEC column (Tosoh, 7.8×30cm, G3000SW xl) in PBS in the absence of guanidium chloride (GuHCl) or in the presence of 1M or 2M guanidinium chloride (GuHCl)."}
{"protein": "B1", "values": [{"measurement": "binding result", "result": "binds"}]}
